Our source for the ELISA estimate of IFN-α protein level in tissue culture supernatant and specific ELISA signal compared to human IFN-α2 values is patent US20090092581A1.

The target in test [1] is Cynomolgus IFN-α protein SEQ ID 42, expressed in Vero tissue culture supernatant (Cynomolgus (Macaca fascicularis)). The test can be described thus: ELISA kit PBL #41100 (head prints 41110) on Vero supernatant; read against human IFN-α2a standard curve; unit not given. Background: An ELISA detects its analyte on a solid surface through an enzyme-linked reagent.
The target of test [2] is Cynomolgus IFN-α protein SEQ ID 58, expressed in Vero tissue culture supernatant (Cynomolgus (Macaca fascicularis)). Described as above.
For test [3], the target named is Cynomolgus IFN-α protein SEQ ID 46, expressed in Vero tissue culture supernatant (Cynomolgus (Macaca fascicularis)). The description is as above.
Test [4] has as its target Cynomolgus IFN-α protein SEQ ID 66, expressed in Vero tissue culture supernatant (Cynomolgus (Macaca fascicularis)). Described as above.
Test [5] has as its target Cynomolgus IFN-α protein SEQ ID 60, expressed in Vero tissue culture supernatant (Cynomolgus (Macaca fascicularis)). The test is described as above.
Test [6] addresses Cynomolgus IFN-α protein SEQ ID 62, expressed in Vero tissue culture supernatant (Cynomolgus (Macaca fascicularis)). The test is described as above.
For test [7], the target named is Cynomolgus IFN-α protein SEQ ID 56, expressed in Vero tissue culture supernatant (Cynomolgus (Macaca fascicularis)). Described as above.
Test [8] deals with Cynomolgus IFN-α protein SEQ ID 50, expressed in Vero tissue culture supernatant (Cynomolgus (Macaca fascicularis)). The test is described as above.
In test [9] the target is Cynomolgus IFN-α protein SEQ ID 54, expressed in Vero tissue culture supernatant (Cynomolgus (Macaca fascicularis)). The test is described as above.
The target of test [10] is Rhesus interferon alpha 2 (Rhesus) (UniProt B6CK11). The test can be described thus: sandwich ELISA kit PBL #41100-1; signal relative to human IFN-α2 (FIG. 3).
In test [11] the target is Cynomolgus interferon alpha 2 (SEQ ID NO: 66), purified from inclusion bodies after expression in E. coli (Cynomolgus (Macaca fascicularis)). Described as above.

UniProt B6CK11, sequence (B6CK11 entry or part of it): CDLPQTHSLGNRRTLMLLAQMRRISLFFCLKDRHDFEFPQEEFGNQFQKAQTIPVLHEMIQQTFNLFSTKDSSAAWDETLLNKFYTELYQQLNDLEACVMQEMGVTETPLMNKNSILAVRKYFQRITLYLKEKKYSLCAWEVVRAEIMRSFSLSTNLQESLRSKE

Turning to “Human IFN-α ELISA kit, PBL Biomedical Laboratories Product #41100-1 (kit antibodies) (antibody)”, the ELISA estimate of IFN-α protein level in tissue culture supernatant in test [1] was 0; in test [2], 66; in test [3], 0; in [4] it was 184; in test [5], 0; in [6], 0. Besides, the results for the ELISA estimate of IFN-α protein level in tissue culture supernatant in [7], in test [8] and in test [9] were 0, 296 and 11, respectively. For the same substance, the specific ELISA signal compared to human IFN-α2 in [10] and in [11] was 10% throughout.
